For experiment [1], the target named is ubiquitin (from bovine erythrocytes) (bovine, UniProt P0CG53 1-76). Put plainly: NMR titration.
The target in experiment [2] is carboxyl terminal domain of rat Cx43 (Cx43CT; residues S255-I382) (rat, UniProt P08050 255-382). Nature of the experiment: NMR titration.
carboxyl terminal domain of rat Cx43 (Cx43CT; residues S255-I382), sequence (P08050 255-382): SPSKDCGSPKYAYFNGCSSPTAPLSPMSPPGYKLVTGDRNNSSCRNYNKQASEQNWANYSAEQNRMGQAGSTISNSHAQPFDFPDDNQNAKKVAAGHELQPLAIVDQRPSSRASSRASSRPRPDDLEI

On to MPEVRFQQQLEQLNSMGFINREANLQALIATGGDINAAIERLLGSQLS (domain or fragment, mouse, UniProt Q99NB8 549-596, looked up) [UBA domain of CIP75 (connexin43-interacting protein of approximately 75 kDa), residues M549-S596], for which the binding result in experiment [1] and in experiment [2] was “binds” each time.

The record behind these values is article PMC2877510 (Journal of biomolecular NMR, 2010).
